{"source": "patent US20150246947A1", "about": "(BAXALTA, published 2015)"}
{"biological_target": "T1, human Protein S (UniProt P07225 42-676)", "T1 chain": "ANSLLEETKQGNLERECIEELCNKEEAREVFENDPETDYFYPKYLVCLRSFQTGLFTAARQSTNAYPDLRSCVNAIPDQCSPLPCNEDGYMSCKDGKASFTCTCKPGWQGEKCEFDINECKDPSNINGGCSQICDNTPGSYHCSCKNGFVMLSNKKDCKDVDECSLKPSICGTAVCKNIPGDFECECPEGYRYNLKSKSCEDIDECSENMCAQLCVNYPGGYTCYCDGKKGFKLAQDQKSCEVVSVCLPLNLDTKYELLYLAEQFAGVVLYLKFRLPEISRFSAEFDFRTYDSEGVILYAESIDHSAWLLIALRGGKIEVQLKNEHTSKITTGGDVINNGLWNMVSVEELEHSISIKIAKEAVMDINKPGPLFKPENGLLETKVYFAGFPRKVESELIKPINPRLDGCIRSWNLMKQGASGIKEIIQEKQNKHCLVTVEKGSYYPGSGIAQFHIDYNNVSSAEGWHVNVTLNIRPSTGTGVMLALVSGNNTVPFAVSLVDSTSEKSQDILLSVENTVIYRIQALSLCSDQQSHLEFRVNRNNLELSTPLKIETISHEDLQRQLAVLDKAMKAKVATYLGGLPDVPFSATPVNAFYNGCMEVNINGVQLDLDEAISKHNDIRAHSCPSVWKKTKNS", "test": "LANCE competition", "summary_of_the_method": "(§1)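 A homogeneous time-resolved FRET (LANCE) competition format paired europium-labelled Protein S and ULight-labelled streptavidin with a biotinylated tracer peptide, against which unlabelled test peptide was titrated three-fold. With final concentrations of 10 nM Protein S, 100 nM streptavidin and 300 nM tracer in 50 µl, or 2 nM Protein S and 60 nM tracer when a Tecan F500 was used, samples stood 1 hour at room temperature. Emission was read at 665 nm with excitation at 340 nm. Non-linear regression of these signals gave the IC50.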", "units": {"IC50": "nM"}}
{"binder": "Ac-EYYVSAGWYDYNNDTYYEFE-NH2", "note": "[JBS3233]", "IC50": 0.9}
{"binder": "Ac-EYYVSAGWYDYNTDTYYEFD-NH2", "note": "[JBS3231]", "IC50": 1.5}
{"binder": "Ac-EYYVSAGWYDYNSDTYQEFI-NH2", "note": "[JBS3244]", "IC50": 4.7}
{"binder": "Ac-EYYVSAGWYDYNYDVYTEFE-NH2", "note": "[JBS3248]", "IC50": 3.7}
{"binder": "Ac-EYTVSAGWYDYNNDIYFEFY-NH2", "note": "[JBS3219]", "IC50": 1.1}
{"binder": "Ac-EEYVSAGWYDMNRDTYTEFY-NH2", "note": "[JBS3252]", "IC50": 12.8}
{"biological_target": "T1, human Protein S", "test": "LANCE competition", "remark": "another data set of the same source", "summary_of_the_method": "as §1", "units": {"IC50": "nM"}}
{"binder": "Ac-EYEVSAGWYDYNNDVYNEFY-NH2", "note": "[JBS3277]", "IC50": 3.4}
{"binder": "Ac-IIMVSAGWYDYNTDTYYEFE-NH2", "note": "[JBS3301]", "IC50": 1.3}
{"binder": "Ac-EVYVSAGWYNYNEDAYYEFW-NH2", "note": "[JBS3287]", "IC50": 1.2}
{"binder": "Ac-WYEVEIGWYDYNTDTYQEFY-NH2", "note": "[JBS3308]", "IC50": 1.4}
{"binder": "Ac-NYIVSAGWYDYNNDEYIEFY-NH2", "note": "[JBS3286]", "IC50": 1.3}
{"binder": "Ac-DVYVSAGWYDYNEDTYYEFS-NH2", "note": "[JBS3288]", "IC50": 3.1}
{"binder": "Ac-ITHVTAGWYDYNTDTYYEFI-NH2", "note": "[JBS3302]", "IC50": 3.5}
{"binder": "Ac-VIEVSAGWYDYNEDKYYEFW-NH2", "note": "[JBS3303]", "IC50": 1.7}
{"binder": "Ac-EHIVSAGWYDYNMDEYYEFW-NH2", "note": "[JBS3294]", "IC50": 6.3}
{"binder": "Ac-AYIVEAGWYDYNTDTYEEFW-NH2", "note": "[JBS3305]", "IC50": 3.7}
{"binder": "Ac-YVTVSAGWYDYNKDEYFEFY-NH2", "note": "[JBS3309]", "IC50": 1.1}
{"binder": "Ac-EYFVSAGWYDYNADIYYEFD-NH2", "note": "[JBS3278]", "IC50": 1.1}
{"binder": "Ac-EYTISAGWYDYNTDMYYEFV-NH2", "note": "[JBS3254]", "IC50": 1.6}
{"binder": "Ac-ESYVSAGWYDYNTDTYYEFY-NH2", "note": "[JBS3262]", "IC50": 1}
{"binder": "Ac-EYSVSAGWYDYYNDTYYEFY-NH2", "note": "[JBS3265]", "IC50": 1.4}
{"binder": "Ac-KDKVSAGWYDYNSDTYYEFT-NH2", "note": "[JBS3300]", "IC50": 3.2}
{"binder": "Ac-EAMVSAGWYDYMNDTYYEFE-NH2", "note": "[JBS3293]", "IC50": 2.1}
{"binder": "Ac-YGIVSAGWYEYNTDIYEEFW-NH2", "note": "[JBS3257]", "IC50": 14.8}
{"binder": "Ac-EYTVSAGWYNYNADEYYEFE-NH2", "note": "[JBS3253]", "IC50": 2.8}
{"binder": "Ac-YNEVSAGWYDMNEDTYYEFY-NH2", "note": "[JBS3280]", "IC50": 5.3}
{"binder": "Ac-ESIVSAGWYDYNTDTYYEFT-NH2", "note": "[JBS3268]", "IC50": 1.5}
{"binder": "Ac-EATVSIGWYDYNKDEYYEFY-NH2", "note": "[JBS3291]", "IC50": 8}
{"binder": "Ac-EYTASAGWYDYNSDTYYEFE-NH2", "note": "[JBS3255]", "IC50": 9.5}
{"binder": "Ac-YNIVSAGWYDYNKDTYYEFF-NH2", "note": "[JBS3279]", "IC50": 1.5}
{"binder": "Ac-KVEVSAGWYDYNKDVYYEFE-NH2", "note": "[JBS3299]", "IC50": 2}
{"binder": "Ac-EFIVSAGWYDYNKDTYIEFE-NH2", "note": "[JBS3292]", "IC50": 2.7}
{"binder": "Ac-EYSVSAGWYDYNTDVYYEFE-NH2", "note": "[JBS3266]", "IC50": 1.6}
{"binder": "Ac-NMYVSAGWYNYNEDTYEEFY-NH2", "note": "[JBS3289]", "IC50": 2.5}
{"binder": "Ac-ESYVSAGWYDYNIDAYYEFY-NH2", "note": "[JBS3261]", "IC50": 2}
{"binder": "Ac-FEYVSAGWYDYNTDTYYEFY-NH2", "note": "[JBS3271]", "IC50": 1.9}
{"binder": "Ac-VFYVSAGWYDYNDDKYYEFW-NH2", "note": "[JBS3304]", "IC50": 1.5}
{"binder": "Ac-EGYVSAGWYDYNKDIYLEFE-NH2", "note": "[JBS3259]", "IC50": 3.7}
{"binder": "Ac-YGIVEAGWYEYNTDEYIEFW-NH2", "note": "[JBS3256]", "IC50": 1.7}
{"binder": "Ac-EVEVSAGWYEYNTDTYYEFW-NH2", "note": "[JBS3282]", "IC50": 4.1}
{"binder": "Ac-RYIVSAGWYDIIQDTYFEFY-NH2", "note": "[JBS3285]", "IC50": 1.2}
{"binder": "Ac-FGIVSAGWYDYNTDTYYEPY-NH2", "note": "[JBS3269]", "IC50": 56.9}
{"binder": "Ac-EVEVSAGWYDYNDDKYYEFG-NH2", "note": "[JBS3276]", "IC50": 3}
{"binder": "Ac-KMHVSIGWYDYNNDIYYEFY-NH2", "note": "[JBS3298]", "IC50": 1}
{"binder": "Ac-EYIVEAGWYDINEDKYLEFY-NH2", "note": "[JBS3264]", "IC50": 2}
{"binder": "Ac-EVHVSAGWYDYNNDTYYEFG-NH2", "note": "[JBS3275]", "IC50": 1.2}
{"binder": "EYYVSAGWYDYNTDTYYEFEC", "note": "[JBS3320]", "IC50": 0.5}
{"binder": "Ac-FEYVIAGWYDYNTDTYHEFN-NH2", "note": "[JBS3272]", "IC50": 1.4}
{"binder": "Ac-HYNVSAGWYDYNNDEYFEFY-NH2", "note": "[JBS3307]", "IC50": 1.4}
{"binder": "Ac-ESIVSAGWYDYNTDEYYEFF-NH2", "note": "[JBS3267]", "IC50": 1.7}
{"binder": "Ac-NMEVSAGWYDYNSDTYHEFW-NH2", "note": "[JBS3290]", "IC50": 3.4}
{"binder": "Ac-FGIISAGWYDYNEDAYSEFY-NH2", "note": "[JBS3270]", "IC50": 1.2}
